This assay deals with native CTF cleaved from full-length rCav2.1 proteins. The experiment in a line: SDS-PAGE under mildly denaturing conditions with immunoblot.

The substance “native CTF cleaved from full-length rCav2.1 proteins” gave a stoichiometry N of 2.

The record behind these values is article PMC2841749.
